Measurements taken from paper PMC11853559, “α-Synuclein Iron-Responsive-Element RNA and Iron Regulatory Protein Affinity Is Specifically Reduced by Iron in Parkinson’s Disease”.

Assays:
Settings in all cases: protein: commercial; hairpin (stem-loop), melted and reannealed
[1] = biological target: T1, Iron regulatory protein 1 (IRP1) (UniProt P21399 1-889); test: fluorescence quenching, Scatchard; 25 °C, no Fe (abstract gives 21.0); 20 mM HEPES pH 7.4, 100 mM KCl, 1 mM MgCl2; 50 nM IRP1, 0-200 nM RNA; 15 min; 25 °C (5-30 °C series); Fe2+ 50 uM anaerobic where stated
T1 sequence: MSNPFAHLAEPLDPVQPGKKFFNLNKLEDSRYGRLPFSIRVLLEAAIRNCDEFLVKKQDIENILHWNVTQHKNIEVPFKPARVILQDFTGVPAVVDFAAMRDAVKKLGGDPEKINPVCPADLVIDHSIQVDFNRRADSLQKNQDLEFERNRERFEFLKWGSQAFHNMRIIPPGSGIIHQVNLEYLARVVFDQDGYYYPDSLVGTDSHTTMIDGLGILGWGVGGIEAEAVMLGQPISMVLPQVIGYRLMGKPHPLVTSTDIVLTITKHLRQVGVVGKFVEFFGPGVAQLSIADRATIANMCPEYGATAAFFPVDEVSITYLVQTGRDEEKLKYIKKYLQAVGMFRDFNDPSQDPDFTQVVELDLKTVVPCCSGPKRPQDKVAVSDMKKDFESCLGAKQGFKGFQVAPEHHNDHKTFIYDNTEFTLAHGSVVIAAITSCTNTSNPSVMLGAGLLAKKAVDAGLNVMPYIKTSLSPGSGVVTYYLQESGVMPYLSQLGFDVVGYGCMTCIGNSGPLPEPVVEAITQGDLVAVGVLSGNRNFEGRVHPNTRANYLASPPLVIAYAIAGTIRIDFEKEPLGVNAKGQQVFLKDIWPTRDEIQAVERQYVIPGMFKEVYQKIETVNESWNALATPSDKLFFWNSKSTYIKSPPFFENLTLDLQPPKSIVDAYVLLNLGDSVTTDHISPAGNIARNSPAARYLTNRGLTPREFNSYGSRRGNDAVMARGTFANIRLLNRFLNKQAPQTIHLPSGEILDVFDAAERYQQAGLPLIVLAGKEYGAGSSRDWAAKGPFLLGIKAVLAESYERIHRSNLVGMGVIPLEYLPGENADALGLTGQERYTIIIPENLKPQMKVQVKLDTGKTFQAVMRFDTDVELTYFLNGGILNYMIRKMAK

[2] = biological target: T1, Iron regulatory protein 1 (IRP1); test: fluorescence quenching (intrinsic); 20 °C, no Fe; 20 mM HEPES pH 7.4, 100 mM KCl, 1 mM MgCl2; 50 nM IRP1, 0-200 nM RNA; 15 min; 25 °C (5-30 °C series); Fe2+ 50 uM anaerobic where stated
[3] = biological target: T1, Iron regulatory protein 1 (IRP1); test: fluorescence quenching (intrinsic); 30 °C, no Fe; 20 mM HEPES pH 7.4, 100 mM KCl, 1 mM MgCl2; 50 nM IRP1, 0-200 nM RNA; 15 min; 25 °C (5-30 °C series); Fe2+ 50 uM anaerobic where stated
[4] = biological target: T1, Iron regulatory protein 1 (IRP1); test: fluorescence quenching (intrinsic); 15 °C, no Fe; 20 mM HEPES pH 7.4, 100 mM KCl, 1 mM MgCl2; 50 nM IRP1, 0-200 nM RNA; 15 min; 25 °C (5-30 °C series); Fe2+ 50 uM anaerobic where stated
[5] = biological target: T1, Iron regulatory protein 1 (IRP1); test: fluorescence quenching (intrinsic); 25 °C, no Fe; 20 mM HEPES pH 7.4, 100 mM KCl, 1 mM MgCl2; 50 nM IRP1, 0-200 nM RNA; 15 min; 25 °C (5-30 °C series); Fe2+ 50 uM anaerobic where stated
[6] = biological target: T1, Iron regulatory protein 1 (IRP1); test: fluorescence quenching (intrinsic); 10 °C, no Fe; 20 mM HEPES pH 7.4, 100 mM KCl, 1 mM MgCl2; 50 nM IRP1, 0-200 nM RNA; 15 min; 25 °C (5-30 °C series); Fe2+ 50 uM anaerobic where stated
[7] = biological target: T1, Iron regulatory protein 1 (IRP1); test: fluorescence quenching (intrinsic); 5 °C, no Fe; 20 mM HEPES pH 7.4, 100 mM KCl, 1 mM MgCl2; 50 nM IRP1, 0-200 nM RNA; 15 min; 25 °C (5-30 °C series); Fe2+ 50 uM anaerobic where stated

ACUGGGAGUGGCCAUUCGACGACAGUGUGGUGUAAAGGAAUUCAUUAGCC (structured_RNA) [alpha-Syn IRE RNA (SNCA 5'-UTR)] was tested, and the Ka [1] was 20.8 10^6 M-1, the Kd [2] was 0.0389 ± 0.0015 µM and the Kd [3] was 0.0638 ± 0.0032 µM. It also gave a Kd [4] of 0.0278 ± 0.0012 µM, a Kd [5] of 0.0476 ± 0.0017 µM and a Kd [6] of 0.0219 ± 0.0008 µM. The Kd [7] was 0.0135 ± 0.0006 µM.
